According to paper PMC8183521 (2021):

Target: SARS-CoV-2 (2019-nCoV) Spike RBD-His Recombinant Protein (SARS-CoV-2, UniProt P0DTC2 319-541)
Assay: ELISA

B1: B-38 (antibody, V domains shown)
VH: EVQLVESGGGLVQPGGSLRLSCAASGFIVSSNYMSWVRQAPGKGLEWVSVIYSGGSTYYADSVKGRFTISRHNSKNTLYLQMNSLRAEDTAVYYCAREAYGMDVWGQGTTVTVSS
VL: DIVMTQSPSFLSASVGDRVTITCRASQGISSYLAWYQQKPGKAPKLLIYAASTLQSGVPSRFSGSGSGTEFTLTISSLQPEDFATYYCQQLNSYPPYTFGQGTKLEIK
Work on B1 yielded an EC50 of 1.5 µg/mL.
